Laboratory results as given in US20220306733A1 (ITEOS BELGUIM, published 2022).

T1: human TIGIT on cells (Jurkat-hTIGIT, human primary T cells) (human, UniProt Q495A1 22-244)
T1 sequence (looked up): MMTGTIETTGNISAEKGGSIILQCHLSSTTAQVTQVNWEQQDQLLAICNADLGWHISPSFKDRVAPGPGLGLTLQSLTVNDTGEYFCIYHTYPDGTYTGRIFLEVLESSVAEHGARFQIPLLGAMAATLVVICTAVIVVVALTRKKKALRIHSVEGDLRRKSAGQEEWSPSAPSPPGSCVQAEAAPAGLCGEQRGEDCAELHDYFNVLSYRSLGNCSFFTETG

T2: mouse TIGIT on cells (Jurkat-mTIGIT) (mouse, UniProt P86176 29-249)
T2 construct: whole, on cells
T2 sequence (looked up): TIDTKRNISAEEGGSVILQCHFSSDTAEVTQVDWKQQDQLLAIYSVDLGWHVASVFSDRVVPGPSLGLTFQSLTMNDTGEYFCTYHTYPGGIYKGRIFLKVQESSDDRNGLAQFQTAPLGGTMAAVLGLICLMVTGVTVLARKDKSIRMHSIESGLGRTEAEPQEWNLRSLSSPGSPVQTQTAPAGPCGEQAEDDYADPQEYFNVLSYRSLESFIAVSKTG

B1: comparative anti-TIGIT antibody 22G2 (antibody, human IgG1, V domains shown)
VH: QVHLQESGPGLVKPSETLSLTCTVSGGSVSSGIYYWSWIRQPPGKGLEWIGYIYYSGSTNYNPSLKSRVTISVDTSKNQFSLKLSSVTAADTAVYYCARDYYVSGNYYNVDYYFFGVDVWGQGTTVTVSS
VL: EIVLTQSPATLSLSPGERATLSCRASQSVSSYLAWYQQKPGQAPRLLIYDASNRATGIPARFSGSGSGTDFTLTISSLEPEDFAVYYCQQRSNWPPLFTFGPGTKVDIK
B2: anti-TIGIT antibody clone 29478 (antibody, V domains shown)
VH: EVQLVESGGGVVQPGRSLRLSCAASGFTFESYGMVWVRQAPGKGLEWVASILYDGSNRYYADSVKGRFTVSRDNSKNTLYLQMNSLRAEDTAVYYCARVSYYYDSVELRWAEYFQHWGQGTLVTVSS
VL: EIVLTQSPATLSLSPGERATLSCRASQSVSSYLAWYQQKPGQAPRLLIYDASKRATGIPARFSGSGSGTDFTLTISSLEPEDFAVYYCQQVHNFPLTFGGGTKVEIK
notes: human IgG; Fab for 'Fab KD' columns
B3: comparative anti-TIGIT antibody 31C6 (MEB125.31C6.A1.205 VH4/VL1) (antibody, human IgG1, V domains shown)
VH: EVQLVQSGAEVKKPGASVKVSCKASGYTFSSYVMHWVRQAPGQGLEWIGYIDPYNDGAKYAQKFQGRVTLTSDKSTSTVYMELSSLRSEDTAVYYCARGGPYGWYFDVWGQGTTVTVSS
VL: DIQMTQSPSSLSASVGDRVTITCRASEHIYSYLSWYQQKPGKAPKLLIYNAKTLAEGVPSRFSGSGSGTDFTLTISSLQPEDFATYYCQHHFGSPLTFGQGTRLEIK
B4: anti-TIGIT antibody clone 29520 (antibody, V domains shown)
VH: QVQLVESGGGLVQPGRSLRLSCAASGFTFRDYAMHWVRQAPGKGLEWVSGITWNSGLIGYADSVKGRFTISRDNAKNSLYLQMNSLRAEDTALYYCAKPVPRLRGLDVWGQGTMVTVSS
VL: DIQLTQSPSSVSASVGDRVTITCRASQGISSWLAWYQQKPGKAPKLLIYGASSLQSGVPSRFSGSGSGTDFTLTISSLQPEDFATYYCQQAFYLPWTFGGGTKVEIK
notes: as for B2
B5: anti-TIGIT antibody clone 29523 (antibody, V domains shown)
VH: EVQLVESGGGVVQPGRSLRLSCAASGFTFGSYYMHWVRQAPGKGLEWVAVIWPDGSNKLYADSVKGRFTISRDNSKNTLYLQMNSLRAEDTALYYCAKPVPKSRALDVWGQGTMVTVSS
VL: DIQLTQSPSSVSASVGDRVTITCRASQGISSWLAWYQQKPGKAPKLLIYGASSLQSGVPSRFSGSGSGTDFTLTISSLQPEDFATYYCQQAFYLPWTFGGGTKVEIK
notes: as for B2
B6: anti-TIGIT antibody clone 29527 (antibody, V domains shown)
VH: QVQLVESGGGVVQPGRSLRLSCAASGFTFSSSYMHWVRQAPGKGLEWVAVIGADGSNKYYADSVEGRFTISRDNSKNTLYLQMNSLRAEDTALYYCAKPVPRRRGLDVWGQGTMVTVSS
VL: DIQLTQSPSSVSASVGDRVTITCRASQGISSWLAWYQQKPGKAPKLLIYGASSLQSGVPSRFSGSGSGTDFTLTISSLQPEDFATYYCQQAFYLPWTFGGGTKVEIK
notes: human IgG
B7: anti-TIGIT antibody clone 26521 (antibody, V domains shown)
VH: QVQLVQSGAEVKKPGSSVKVSCKASGGTFSSYAISWVRQAPGQGLEWMGGIIPIFGTANYAQKFQGRVTITADESTSTAYMELSSLRSEDTAVYYCARLHLGSSAYYGMDVWGQGTTVTVSS
VL: DIQMTQSPSSLSASVGDRVTITCRASQSISSYLNWYQQKPGKAPKLLIYAASSLQSGVPSRFSGSGSGTDFTLTISSLQPEDFATYYCQQRYVFPPTFGGGTKVEIK
notes: Naive parent clone, VH1-69; human IgG; Fab for 'Fab KD' columns
B8: anti-TIGIT antibody clone 29513 (antibody, V domains shown)
VH: QVQLVQSGAEVKKPGSSVKVSCKASGGTFQNYAISWVRQAPGQGLEWMGVIVPIFGTANYAQKFQGRVTVTADESTSTAYMELSSLRSEDTAVYYCARLHLGQKAYYGMDVWGQGTTVTVSS
VL: DIQMTQSPSSLSASVGDRVTITCRASQSISSYLNWYQQKPGKAPKLLIYAASSLQSGVPSRFSGSGSGTDFTLTISSLQPEDFATYYCQQRYVFPPTFGGGTKVEIK
notes: as for B2
B9: anti-TIGIT antibody clone 26486 (antibody, V domains shown)
VH: QVQLQESGPGLVKPSETLSLTCAVSGYSISSGYYWAWIRQPPGKGLEWIGSIYHSGSTYYNPSLKSRVTISVDTSKNQFSLKLSSVTAADTAVYYCAIEGANYYDFGYVAFDIWGQGTMVTVSS
VL: EIVMTQSPATLSVSPGERATLSCRASQSVSSNLAWYQQKPGQAPRLLIYGASTRATGIPARFSGSGSGTEFTLTISSLQSEDFAVYYCQQSPPWPRTFGGGTKVEIK
notes: Naive parent clone, VH4-0B; human IgG; Fab for 'Fab KD' columns
B10: anti-TIGIT antibody clone 29499 (antibody, V domains shown)
VH: QLQLQESGPGLVKPSETLSLTCTVSGGSISSSRYYWAWIRQPPGKGLEWIGSIGTSGSTYYNPSLKSRVTISVDTSKNQFSLKLSSVTATDTAVYYCAIEGANFRDFGYVAFDIWGQGTMVTVSS
VL: EIVMTQSPATLSVSPGERATLSCRASQSVSSNLAWYQQKPGQAPRLLIYGASTRATGIPARFSGSGSGTEFTLTISSLQSEDFAVYYCQQSPPWPRTFGGGTKVEIK
notes: as for B2
B11: anti-TIGIT antibody clone 29494 (antibody, V domains shown)
VH: QVQLQESGPGLVKPSETLSLTCTVSGGSISSGSYYLAWIRQPPGKGLEWIGSIFRSGSTYYNPSLESRVTISVDTSKNQFSLKLSSVTAADTAVYYCAIEGANFKDFGYVAFDIWGQGTMVTVSS
VL: EIVMTQSPATLSVSPGERATLSCRASQSVSSNLAWYQQKPGQAPRLLIYGASTRATGIPARFSGSGSGTEFTLTISSLQSEDFAVYYCQQSPPWPRTFGGGTKVEIK
notes: as for B2
B12: anti-TIGIT antibody clone 32919 (antibody, V domains shown)
VH: QLQLQESGPGLVKPSETLSLTCTVSGGSISSGSYYLAWIRQPPGKGLEWIGSIFRSGSTYYNPSLESRVTISVDTSKNQFSLKLSSVTAADTAVYYCAIEGANFKDFGYVAFDIWGQGTTVTVSS
VL: EIVLTQSPATLSLSPGERATLSCRASQSVSSYLAWYQQKPGQAPRLLIYDASNRATGIPARFSGSGSGTDFTLTISSLEPEDFAVYYCQQENPRPRTFGGGTKVEIK
notes: L1/L2/L3 optimised from 31288; human IgG
B13: anti-TIGIT antibody clone 32931 (antibody, V domains shown)
VH: QLQLQESGPGLVKPSETLSLTCTVSGGSISSGSYYLAWIRQPPGKGLEWIGSIFRSGSTYYNPSLESRVTISVDTSKNQFSLKLSSVTAADTAVYYCAIEGANFKDFGYVAFDIWGQGTTVTVSS
VL: EIVMTQSPATLSVSPGERATLSCRASKSVSSNLAWYQQKPGQAPRLLIYFASTRATGIPARFSGSGSGTEFTLTISSLQSEDFAVYYCQQTSPWPRTFGGGTKVEIK
notes: as for B12
B14: comparative anti-TIGIT antibody 4.1D3.Q1E (antibody, human IgG1, V domains shown)
VH: EVQLQQSGPGLVKPSQTLSLTCAISGDSVSSNSAAWNWIRQSPSRGLEWLGKTYYRFKWYSDYAVSVKGRITINPDTSKNQFSLQLNSVTPEDTAVFYCTRESTTYDLLAGPFDYWGQGTLVTVSS
VL: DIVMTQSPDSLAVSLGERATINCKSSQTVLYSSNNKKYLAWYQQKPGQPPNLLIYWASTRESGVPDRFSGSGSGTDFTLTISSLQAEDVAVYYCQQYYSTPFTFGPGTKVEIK

Columns and labels:
[1] = target: T1, human TIGIT on cells (Jurkat-hTIGIT, …); test: cell-based or functional assay
[2] = target: T1, human TIGIT on cells (Jurkat-hTIGIT, …); test: cell-based or functional assay; remark: listed apart in the source
[3] = target: T2, mouse TIGIT on cells (Jurkat-mTIGIT); test: flow cytometry on Jurkat-mTIGIT, 100 nM antibody, vs untransfected Jurkat
Experimental: (§1) Antibodies were incubated with the cells for 20 min at 4° C. in FACS buffer. […] Geometric mean fluorecence intensity was analysed using LSR BD Fortessa. Cell binding was recorded as the median florescence intensity of PE on the transfected line compared to the un-transfected line for each antibody (Table 3).

[4] = target: T1, human TIGIT on cells (Jurkat-hTIGIT, …); test: flow cytometry on Jurkat-hTIGIT, 100 nM antibody, vs untransfected Jurkat
Experimental: as §1

[5] = target: T1, human TIGIT on cells (Jurkat-hTIGIT, …); test: cell-based or functional assay; remark: listed apart in the source

Binder	EC50 (nM), luciferase, Jurkat-hTIGIT + CHO-CD155 [1]	luciferase induction over isotype control (fold change), Jurkat-hTIGIT + CHO-CD155 [1]	EC50 (nM), IFNg, human primary CD8+ T cells + CHO-CD155 [2]	IFNg induction over isotype control (fold change), human primary CD8+ T cells + CHO-CD155 [2]	Cell binding FON (Fold Over Negative) [3]	Cell binding FON (Fold Over Negative) [4]	luciferase induction over isotype control (fold change), Jurkat-hTIGIT + CHO-TCR-CD155 bioassay, 133 nM antibody [5]
B1	5.2 nM	5.3 fold	0.41 nM	1.5 fold			
B2					500 fold over negative	182 fold over negative	3.57 fold
B3	5.3 nM	6.7 fold	0.3 nM	1.6 fold			
B4					535 fold over negative	166 fold over negative	2.52 fold
B5					502 fold over negative	150 fold over negative	2.4 fold
B6					414 fold over negative	142 fold over negative	2.96 fold
B7					218 fold over negative	146 fold over negative	2.66 fold
B8					406 fold over negative	156 fold over negative	3.26 fold
B9					199 fold over negative	143 fold over negative	1.9 fold
B10					541 fold over negative	164 fold over negative	3.68 fold
B11					511 fold over negative	164 fold over negative	3.42 fold
B12						680 fold over negative	
B13						741 fold over negative	
B14	10.3 nM	5.8 fold	1.43 nM	2.9 fold			
